The values that follow come from article PMC7531523.

For assay [1], the target named is rOX40.24.2 full-length human IgG1 (human). Nature of the assay: BLI. For orientation: Biolayer interferometry detects binding as a change in optical thickness at a sensor tip.
In assay [2] the target is epOX40.24.1 full-length human IgG1 (human). Nature of the assay: BLI.
The target in assay [3] is epOX40.24.2 full-length human IgG1 (human). Description: BLI.
In assay [4] the target is rOX40.24.1 scFv displayed on yeast (human). Nature of the assay: flow cytometry on cells. For orientation: In flow cytometry, cells or beads pass a laser one at a time.
The target of assay [5] is epOX40.24.2 scFv displayed on yeast (human). Nature of the assay: flow cytometry on cells.
For assay [6], the target named is rOX40.24.2 scFv displayed on yeast (human). Nature of the assay: flow cytometry on cells.
The target in assay [7] is epOX40.24.1 scFv displayed on yeast (human). Nature of the assay: flow cytometry on cells.

B1: tumor necrosis factor receptor superfamily member 4 (OX40), extracellular, soluble portion (domain or fragment)
chain: LHCVGDTYPSNDRCCHECRPGNGMVSRCSRSQNTVCRPCGPGFYNDVVSSKPCKPCTWCNLRSGSERKQLCTATQDTVCRCRAGTQPLDSYKPGVDCAPCPPGHFSPGDNQACKPWTNCTLAGKHTLQPASNSSDAICEDRDPPATQPQETQGPPARPITVQPTEAWPRTSQGPSTRPVEVPGGRA
modifications: biotin (Sulfo-NHS-LC-biotin) for staining of yeast; not stated for BLI and SPR
For orientation: Kd means the concentration at which binding is half-saturated. Low readings indicate tighter binding, high ones weaker binding. Regarding B1, the Kd in assay [1] worked out at 6.9 nM; in assay [2], 14.4 nM; in assay [3], 3.8 nM; in assay [4], 2.2 nM; in assay [5] it was 7.9 nM; in assay [6] it was 2 nM. The molecule also gave a Kd in assay [7] of 3.8 nM.
